In the assay the target is T1, TNKS2 ARC4 fused with mCerulean (CFP) (human, UniProt Q9H2K2 488-649).
T1 construct: Tankyrase 2 (TNKS2), human, ankyrin repeat cluster 4 (ARC4); residues 487-649 are stated only for the crystallised TNKS2 ARC4; Vector pNIC-CFP: mCerulean inserted between the 6xHis-tag and the TEV site of pNIC28-Bsa4; the label reads CFP first, so the tags are probably N-terminal; also called CFP-TNKS2 ARC4; source: E. coli BL21(DE3), purified (IMAC, SEC)
T1 sequence: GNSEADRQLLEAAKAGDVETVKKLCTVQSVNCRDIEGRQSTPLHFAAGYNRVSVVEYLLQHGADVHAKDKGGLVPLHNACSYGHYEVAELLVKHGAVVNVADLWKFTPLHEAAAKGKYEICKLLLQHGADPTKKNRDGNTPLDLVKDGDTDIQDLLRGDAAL
Kind of assay: FRET or BRET; ratiometric FRET in solution: CFP-TNKS1/2 ARC 100 nM and YFP-REAGDGEE 200 nM, 10 mM Bis-Tris Propane pH 7, 3% PEG 20000, 0.01% Triton X-100, 0.5 mM TCEP; small-molecule compounds added (screen at 30 uM, dose response); 1 M guanidine hydrochloride as control of total inhibition. As to conditions: both partners purified. Background: In BRET a luciferase serves as donor, and the signal depends on an acceptor being close.

Ends that are not written are not given here.

B1: 8-residues peptide optimized for the binding of ARCs (REAGDGEE) fused with mCitrine (YFP) (peptide)
chain: REAGDGEE
modifications: also: fused with mCitrine (YFP)
notes: Vector pNIC-YFP: mCitrine inserted between the 6xHis-tag and the TEV site of pNIC28-Bsa4; the label reads YFP first, so the peptide probably stands at the C-terminal end of the fusion; also called optimized peptide; source: E. coli BL21(DE3), purified (IMAC, SEC)
With B1, the binding result is “binds”.

These data come from article doi:10.1101/2025.03.31.646301, “Discovery of Tankyrase scaffolding inhibitor specifically targeting the ARC4 peptide binding domain” (bioRxiv, 2025).
